Holding throughout (settings): protein: recombinant; tags: C-terminal Strep on PafC; copies: 1;1; label: FAM; single strand
One series addresses T1, PafBC, PafB WYL variant (Mycobacterium smegmatis, UniProt A4ZHT0;A0QZ41 1-331;1-318, R214A;PafB:R211A).
T1 sequence 1: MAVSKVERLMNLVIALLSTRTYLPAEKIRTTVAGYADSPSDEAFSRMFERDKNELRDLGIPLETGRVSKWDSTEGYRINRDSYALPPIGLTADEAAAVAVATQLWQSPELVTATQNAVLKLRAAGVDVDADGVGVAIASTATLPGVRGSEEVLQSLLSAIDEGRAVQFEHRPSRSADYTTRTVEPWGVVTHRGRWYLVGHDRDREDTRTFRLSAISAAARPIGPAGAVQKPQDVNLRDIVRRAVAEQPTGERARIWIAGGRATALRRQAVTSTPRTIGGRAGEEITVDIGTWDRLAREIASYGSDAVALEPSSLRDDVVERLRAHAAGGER
T1 sequence 2: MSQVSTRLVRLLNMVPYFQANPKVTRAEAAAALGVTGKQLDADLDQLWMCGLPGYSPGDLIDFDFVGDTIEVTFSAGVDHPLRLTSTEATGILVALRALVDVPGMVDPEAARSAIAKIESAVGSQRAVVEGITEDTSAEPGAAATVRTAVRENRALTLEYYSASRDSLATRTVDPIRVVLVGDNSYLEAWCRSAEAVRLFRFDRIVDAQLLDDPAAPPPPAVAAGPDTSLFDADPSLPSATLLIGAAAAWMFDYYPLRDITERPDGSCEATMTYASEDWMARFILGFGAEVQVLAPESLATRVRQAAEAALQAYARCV
Nature of the series: EMSA; up to 16 uM; ssDNA EMSA: 22.5 mM Hepes-KOH pH 7.8, 135 mM NaCl, 20 mM KCl, 5 mM MgCl2, 1 mM DTT, 37 C 15 min, 10 nM DNA, 0-16 uM PafBC; RNAP EMSA: 20 mM Hepes-NaOH pH 8, 100 mM K-acetate, 36 mM NaCl, 10 mM MgCl2, 2 mM DTT, 37 C 30 min. For orientation: In EMSA bound probe runs differently from free probe, usually more slowly.

The next series has as its target T2, PafBC, PafB Y196A (Mycobacterium smegmatis, UniProt A4ZHT0;A0QZ41 1-331;1-318, Y196A).
T2 sequence 1: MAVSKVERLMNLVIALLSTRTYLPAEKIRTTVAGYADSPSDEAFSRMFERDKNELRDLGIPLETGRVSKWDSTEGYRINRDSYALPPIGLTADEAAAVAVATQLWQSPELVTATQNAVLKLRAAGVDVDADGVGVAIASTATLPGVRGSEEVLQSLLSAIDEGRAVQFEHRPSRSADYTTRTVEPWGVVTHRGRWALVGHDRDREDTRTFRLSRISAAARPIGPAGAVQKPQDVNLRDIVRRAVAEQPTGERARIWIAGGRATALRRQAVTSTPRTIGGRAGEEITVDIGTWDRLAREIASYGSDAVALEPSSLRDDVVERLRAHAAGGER
T2 sequence 2: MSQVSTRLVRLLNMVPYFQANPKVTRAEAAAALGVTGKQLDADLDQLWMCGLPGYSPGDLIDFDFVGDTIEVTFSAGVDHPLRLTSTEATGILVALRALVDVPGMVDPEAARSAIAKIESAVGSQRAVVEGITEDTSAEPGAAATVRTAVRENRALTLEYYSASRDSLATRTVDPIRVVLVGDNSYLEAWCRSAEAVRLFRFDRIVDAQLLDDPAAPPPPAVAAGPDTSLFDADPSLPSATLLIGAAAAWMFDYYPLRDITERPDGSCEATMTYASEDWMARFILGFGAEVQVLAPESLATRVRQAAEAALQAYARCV
The description is as above.

Series [1] has as its target T3, PafBC, PafB R181A/R204A/R208A (Mycobacterium smegmatis, UniProt A4ZHT0;A0QZ41 1-331;1-318, R204A;R208A;PafB:R181A).
T3 sequence 1: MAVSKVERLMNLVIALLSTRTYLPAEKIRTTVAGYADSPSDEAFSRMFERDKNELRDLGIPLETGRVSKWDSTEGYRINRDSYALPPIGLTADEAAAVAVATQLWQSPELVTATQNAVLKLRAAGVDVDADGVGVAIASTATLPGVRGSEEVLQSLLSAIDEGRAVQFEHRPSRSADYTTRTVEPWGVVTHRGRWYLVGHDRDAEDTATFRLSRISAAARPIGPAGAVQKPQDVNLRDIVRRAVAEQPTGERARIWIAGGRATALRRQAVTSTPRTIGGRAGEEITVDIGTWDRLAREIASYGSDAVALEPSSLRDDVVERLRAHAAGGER
T3 sequence 2: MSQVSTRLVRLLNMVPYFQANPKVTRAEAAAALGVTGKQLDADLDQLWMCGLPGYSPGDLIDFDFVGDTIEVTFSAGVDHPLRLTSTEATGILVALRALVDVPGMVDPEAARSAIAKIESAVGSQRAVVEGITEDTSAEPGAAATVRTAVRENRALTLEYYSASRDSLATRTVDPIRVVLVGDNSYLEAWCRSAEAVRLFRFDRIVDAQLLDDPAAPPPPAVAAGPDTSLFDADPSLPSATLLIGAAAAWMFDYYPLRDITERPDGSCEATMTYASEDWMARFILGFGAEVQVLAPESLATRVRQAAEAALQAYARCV
The description is as above.

The target in a further series is T4, PafBC, PafC WYL variant (Mycobacterium smegmatis, UniProt A4ZHT0;A0QZ41 1-331;1-318, R201A;R204A).
T4 sequence 1: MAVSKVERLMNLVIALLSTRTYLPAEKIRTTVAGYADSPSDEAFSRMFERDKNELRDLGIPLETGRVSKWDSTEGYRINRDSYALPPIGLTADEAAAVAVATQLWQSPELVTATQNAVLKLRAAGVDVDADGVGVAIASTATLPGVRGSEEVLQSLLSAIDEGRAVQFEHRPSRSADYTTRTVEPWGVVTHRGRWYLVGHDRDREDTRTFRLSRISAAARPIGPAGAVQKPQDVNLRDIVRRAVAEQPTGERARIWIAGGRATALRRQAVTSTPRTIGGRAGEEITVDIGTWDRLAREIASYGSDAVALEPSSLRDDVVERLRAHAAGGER
T4 sequence 2: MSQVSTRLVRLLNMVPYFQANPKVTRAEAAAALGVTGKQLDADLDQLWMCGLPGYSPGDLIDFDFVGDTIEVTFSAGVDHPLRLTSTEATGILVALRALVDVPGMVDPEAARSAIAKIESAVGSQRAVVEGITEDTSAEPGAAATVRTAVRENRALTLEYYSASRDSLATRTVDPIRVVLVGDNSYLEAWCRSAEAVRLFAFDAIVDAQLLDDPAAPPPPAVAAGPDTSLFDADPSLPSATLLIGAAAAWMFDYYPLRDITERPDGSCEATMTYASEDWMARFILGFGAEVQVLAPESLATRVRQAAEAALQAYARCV
In words: EMSA; affinity comparable to WT; ssDNA EMSA: 22.5 mM Hepes-KOH pH 7.8, 135 mM NaCl, 20 mM KCl, 5 mM MgCl2, 1 mM DTT, 37 C 15 min, 10 nM DNA, 0-16 uM PafBC; RNAP EMSA: 20 mM Hepes-NaOH pH 8, 100 mM K-acetate, 36 mM NaCl, 10 mM MgCl2, 2 mM DTT, 37 C 30 min.

For TTTTTTTTTTTTTTTTTTTT (ssDNA) [dT20 ssDNA], the binding result with PafBC, PafB WYL variant was “no binding”; in the series with PafBC, PafB Y196A it was “no binding”; in series [1] it was “no binding”; with PafBC, PafC WYL variant, “binds”.

Values taken from paper PMC11804915, “Single-stranded DNA binding to the transcription factor PafBC triggers the mycobacterial DNA damage response”.
